Consider one molecule from patent US20060045883A1, “Anti-cancer vaccines” (priority 2004, published 2006).

In the assay the target is HLA-A2.1 (HLA-A*0201) on the surface of T2 cells (human).

In turn, KLGEFYNQMM (modifications not checked) [Influenza B nucleoprotein peptide (aa 85-94; Flu), P04665 85-94] showed a Median Channel of Fluorescence of HLA-A2 Expression on T2 of 194.
